Measured values taken from patent US20050221426A1.

Experiments:
Experiment in all cases: cell-based or functional assay
[1] = target: Vasoactive Intestinal Peptide 1 receptor (UniProt P32241)
Melanocortin 5 receptor = Melanocortin 5 receptor (UniProt P33032)
Melanocortin 1 receptor = Melanocortin 1 receptor (UniProt Q01726)
GLP1R = GLP1R (UniProt P43220)
CRHR1 = CRHR1 (UniProt P34998)
CRHR1, sequence (P34998 24-415 limits assumed): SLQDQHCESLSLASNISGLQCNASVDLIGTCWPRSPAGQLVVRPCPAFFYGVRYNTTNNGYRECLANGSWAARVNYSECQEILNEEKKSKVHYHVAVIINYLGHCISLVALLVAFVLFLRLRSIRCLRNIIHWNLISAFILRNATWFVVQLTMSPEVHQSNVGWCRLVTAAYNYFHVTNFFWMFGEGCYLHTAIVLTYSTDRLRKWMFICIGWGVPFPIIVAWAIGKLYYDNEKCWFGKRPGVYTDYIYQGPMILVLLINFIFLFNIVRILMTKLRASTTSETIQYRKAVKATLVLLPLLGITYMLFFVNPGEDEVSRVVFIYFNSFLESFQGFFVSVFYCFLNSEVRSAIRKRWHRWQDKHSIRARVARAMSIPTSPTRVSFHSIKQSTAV

Melanocortin 1 receptor, sequence (Q01726 whole entry): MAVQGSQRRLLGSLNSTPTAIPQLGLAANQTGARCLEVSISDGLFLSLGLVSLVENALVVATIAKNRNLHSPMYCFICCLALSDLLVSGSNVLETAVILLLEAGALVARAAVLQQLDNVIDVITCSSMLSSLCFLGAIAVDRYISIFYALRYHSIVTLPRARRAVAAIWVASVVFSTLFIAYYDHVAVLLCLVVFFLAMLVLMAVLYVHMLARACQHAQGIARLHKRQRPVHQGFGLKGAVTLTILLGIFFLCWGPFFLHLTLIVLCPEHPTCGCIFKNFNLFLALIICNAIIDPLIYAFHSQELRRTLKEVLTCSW
Vasoactive Intestinal Peptide 1 receptor, sequence (P32241 31-457): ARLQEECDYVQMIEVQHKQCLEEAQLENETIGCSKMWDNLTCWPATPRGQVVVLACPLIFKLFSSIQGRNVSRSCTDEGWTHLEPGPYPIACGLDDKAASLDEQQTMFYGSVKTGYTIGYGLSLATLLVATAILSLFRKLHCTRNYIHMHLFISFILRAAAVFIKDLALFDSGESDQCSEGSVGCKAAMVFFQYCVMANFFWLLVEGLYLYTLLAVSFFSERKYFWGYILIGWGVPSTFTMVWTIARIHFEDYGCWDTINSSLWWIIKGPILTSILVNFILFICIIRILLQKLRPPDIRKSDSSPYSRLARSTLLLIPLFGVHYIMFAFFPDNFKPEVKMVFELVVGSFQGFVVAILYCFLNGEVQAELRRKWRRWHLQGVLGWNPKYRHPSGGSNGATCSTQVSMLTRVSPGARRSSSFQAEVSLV
Melanocortin 5 receptor, sequence (P33032 whole entry): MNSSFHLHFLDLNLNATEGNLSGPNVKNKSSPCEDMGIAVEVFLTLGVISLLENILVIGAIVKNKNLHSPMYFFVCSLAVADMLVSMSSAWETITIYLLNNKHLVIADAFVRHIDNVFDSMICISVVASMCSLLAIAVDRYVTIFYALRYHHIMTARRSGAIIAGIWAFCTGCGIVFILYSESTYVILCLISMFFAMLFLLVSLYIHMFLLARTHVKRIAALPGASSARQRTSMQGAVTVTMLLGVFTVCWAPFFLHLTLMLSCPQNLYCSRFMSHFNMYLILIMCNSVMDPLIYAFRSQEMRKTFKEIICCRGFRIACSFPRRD
GLP1R, sequence (P43220 24-463 limits assumed): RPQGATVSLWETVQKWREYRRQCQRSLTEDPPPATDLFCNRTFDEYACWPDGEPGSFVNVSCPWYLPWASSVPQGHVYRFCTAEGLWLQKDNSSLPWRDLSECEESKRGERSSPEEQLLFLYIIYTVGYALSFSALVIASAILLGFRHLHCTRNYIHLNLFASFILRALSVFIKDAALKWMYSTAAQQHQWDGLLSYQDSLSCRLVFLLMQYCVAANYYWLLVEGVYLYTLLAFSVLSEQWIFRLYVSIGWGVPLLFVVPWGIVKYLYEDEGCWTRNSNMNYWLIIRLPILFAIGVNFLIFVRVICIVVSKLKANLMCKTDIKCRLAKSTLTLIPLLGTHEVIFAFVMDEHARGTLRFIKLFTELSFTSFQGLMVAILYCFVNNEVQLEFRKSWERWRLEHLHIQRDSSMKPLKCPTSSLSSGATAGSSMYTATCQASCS

“VIP (from UniProt P01282 125-152) (peptide)” gave an EC50 of cell response (CNG channel voltage dye assay; MDC dye) [1] of 0.0024 nM, an EC50 of cell response (CNG channel voltage dye assay; TB & H30602) [1] of 0.005 nM and an Fmax/Fb maximal response (CNG channel voltage dye assay; MDC dye) [1] of 4.9. The Fmax/Fb maximal response (CNG channel voltage dye assay; TB & H30602) [1] was 5.

For “[Nle4-D-Phe7]α-MSH (from UniProt P01189 138-150) (peptide)”, the EC50 of cell response (CNG channel voltage dye assay; MDC dye) (Melanocortin 5 receptor) was 0.0029 nM, the EC50 of cell response (CNG channel voltage dye assay; NR & H30602) (Melanocortin 5 receptor) was 0.0013 nM and the EC50 of cell response (CNG channel voltage dye assay; NY & H30602) (Melanocortin 5 receptor) was 950 nM. The Fmax/Fb maximal response (CNG channel voltage dye assay; MDC dye) (Melanocortin 5 receptor) was 3.6, the Fmax/Fb maximal response (CNG channel voltage dye assay; NR & H30602) (Melanocortin 5 receptor) was 3.2 and the Fmax/Fb maximal response (CNG channel voltage dye assay; NY & H30602) (Melanocortin 5 receptor) was 3.4.

With “α-MSH (from UniProt P01189 138-150) (peptide)” the EC50 of cell response (CNG channel voltage dye assay; MDC dye) (Melanocortin 1 receptor) was 820 nM, the EC50 of cell response (CNG channel voltage dye assay; TB & H30602) (Melanocortin 1 receptor) was 770 nM and the Fmax/Fb maximal response (CNG channel voltage dye assay; MDC dye) (Melanocortin 1 receptor) was 5. For the same molecule, the Fmax/Fb maximal response (CNG channel voltage dye assay; TB & H30602) (Melanocortin 1 receptor) was 5.1.

In the case of GLP (peptide), the EC50 of cell response (CNG channel voltage dye assay; NY & H30602) (GLP1R) is reported as 0.003 nM.

For SEEPPISLDLTFHLLREVLEMARAEQLAQQAHSNRKLMEII (peptide, UniProt P06850 154-194, looked up) [CRF], the EC50 of cell response (CNG channel voltage dye assay; MDC dye) (CRHR1) was 0.028 nM, the EC50 of cell response (CNG channel voltage dye assay; NY & H30602) (CRHR1) was 0.028 nM and the Fmax/Fb maximal response (CNG channel voltage dye assay; MDC dye) (CRHR1) was 4.2. It also gave an Fmax/Fb maximal response (CNG channel voltage dye assay; NY & H30602) (CRHR1) of 4.3.
